In US20210087291A1:
pKd: −log10 of the molar value.

Legend:
[1] = target: human TIM-3 on cells (human) (UniProt Q8TDQ0); assay: flow cytometry, human CD14+ monocytes donor1
[2] = target: cynomolgus TIM-3 on isolated cyno CD14+ monocytes (cynomolgus); assay: flow cytometry, cyno CD14+ monocytes cyno2
[3] = target: cynomolgus TIM-3 on isolated cyno CD14+ monocytes (cynomolgus); assay: flow cytometry, cyno CD14+ monocytes cyno3
[4] = target: cynomolgus TIM-3 on isolated cyno CD14+ monocytes (cynomolgus); assay: flow cytometry, cyno CD14+ monocytes cyno1
[5] = target: human TIM-3 on cells (human) (UniProt Q8TDQ0); assay: flow cytometry, human CD14+ monocytes donor3
[6] = target: human TIM-3 on cells (human) (UniProt Q8TDQ0); assay: flow cytometry, human CD14+ monocytes donor2
[7] = target: human TIM-3 on cells (human) (UniProt Q8TDQ0); assay: FACS competition on RPMI-8226, competitor TIM3-0016
[8] = target: human TIM-3 on cells (human) (UniProt Q8TDQ0); assay: FACS competition on RPMI-8226, competitor TIM3-0018
[9] = target: human TIM-3 on cells (human) (UniProt Q8TDQ0); assay: FACS competition on RPMI-8226, competitor TIM3-0026
[10] = target: human TIM-3 on cells (human) (UniProt Q8TDQ0); assay: FACS competition on RPMI-8226, competitor TIM3-0038
[11] = target: human TIM-3 on cells (human) (UniProt Q8TDQ0); assay: cell-based or functional assay
[12] = target: Tim3-ECD-His-Biotin (human) (UniProt Q8TDQ0); assay: ELISA, human Tim3; EC50 relative to the sample's max value
[13] = target: cynomolgus Tim3 (ELISA) (cynomolgus); assay: ELISA, cyno Tim3; EC50 relative to the sample's max value
Chain of cynomolgus Tim3 (ELISA) (cynomolgus) (chain, as listed by the source, form in doubt): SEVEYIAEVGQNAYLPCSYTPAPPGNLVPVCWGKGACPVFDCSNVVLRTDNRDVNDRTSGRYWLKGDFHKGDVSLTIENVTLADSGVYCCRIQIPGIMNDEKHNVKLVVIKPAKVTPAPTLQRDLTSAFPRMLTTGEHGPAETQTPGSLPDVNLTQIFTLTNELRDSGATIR

[14] = target: human TIM-3 on cells (human) (UniProt Q8TDQ0); assay: FACS competition on RPMI-8226, competitor TIM3-0028
[15] = target: human TIM-3 on cells (human) (UniProt Q8TDQ0); assay: cell ELISA, CHO-Tim3
[16] = target: cynomolgus Tim3 (ELISA) (cynomolgus); assay: ELISA, cyno Tim3
[17] = target: human TIM-3 on cells (human) (UniProt Q8TDQ0); assay: FACS competition on RPMI-8226, competitor TIM3-0022
[18] = target: human TIM-3 on cells (human) (UniProt Q8TDQ0); assay: cell ELISA, CHO-Tim3; EC50 relative to the sample's max value
[19] = target: monomeric cyno Tim3-ECD (cynomolgus); assay: SPR Biacore, antibody captured by anti-mouse IgG
Chain of monomeric cyno Tim3-ECD (cynomolgus) (chain, as listed by the source, form in doubt): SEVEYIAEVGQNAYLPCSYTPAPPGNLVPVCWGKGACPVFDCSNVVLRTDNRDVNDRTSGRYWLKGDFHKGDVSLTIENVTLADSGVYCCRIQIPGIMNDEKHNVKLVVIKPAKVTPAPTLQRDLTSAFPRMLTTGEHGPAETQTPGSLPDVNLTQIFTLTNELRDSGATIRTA

[20] = target: huFc fused dimeric human Tim3-ECD (human) (UniProt Q8TDQ0); assay: SPR Biacore, antibody captured by anti-mouse IgG
[21] = target: monomeric human Tim3-ECD (human) (UniProt Q8TDQ0); assay: SPR Biacore, antibody captured by anti-mouse IgG
[22] = target: Tim3-ECD-His-Biotin (human) (UniProt Q8TDQ0); assay: ELISA, human Tim3

| specific binding MFI [1] [MFI] | MFI [2] [MFI] | MFI [3] [MFI] | MFI [4] [MFI] | specific binding MFI [5] [MFI] | specific binding MFI [6] [MFI] | Max % inhibition of binding [7] [%] | Max % inhibition of binding [8] [%] | Max % inhibition of binding [9] [%] | Max % inhibition of binding [10] [%] | Substance | also measured |
| --- | --- | --- | --- | --- | --- | --- | --- | --- | --- | --- | --- |
| 144 | 82 | 83 | 72 | 213 | 55 | – | – | – | – | M-IgG1 (isotype control) (antibody) | – |
| 71 | 86 | 91 | 84 | 70 | 68 | – | – | – | – | Rat-IgG2A (isotype control) (antibody) | – |
| 516 | 136 | 124 | 135 | 460 | 493 | -7 | -6 | 2 | 94 | anti-TIM3 reference antibody F38-2E2 (BioLegend) | IFN-gamma release in MLR at 1 µg/ml, % of IL-2 control [11]: 7%; IFN-gamma release in MLR at 10 µg/ml, % of IL-2 control [11]: 26%; IFN-gamma release in MLR at 40 µg/ml, % of IL-2 control [11]: 36%; EC50 [12]: 0.0732 µg/mL; EC50 [13]: 0.423 µg/mL; Max % inhibition of binding [14]: 75%; inflexion point [15]: 224 ng/mL; inflexion point [16]: 210000 ng/mL; Max % inhibition of binding [17]: 77%; EC50 [18]: 0.35 µg/mL; pKd [19]: 6.77; pKd [20]: 8.12; pKd [21]: 7.87; inflexion point [22]: 86.3 ng/mL |

Further lines, the substance ahead of its results:

| Substance | specific binding MFI [1] [MFI] | MFI [2] [MFI] | MFI [3] [MFI] | MFI [4] [MFI] | specific binding MFI [5] [MFI] | specific binding MFI [6] [MFI] | Max % inhibition of binding [7] [%] | Max % inhibition of binding [8] [%] | Max % inhibition of binding [9] [%] | Max % inhibition of binding [10] [%] | also measured |
| --- | --- | --- | --- | --- | --- | --- | --- | --- | --- | --- | --- |
| M-IgG2b (isotype control) (antibody) | 0 | – | – | – | 0 | 13 | – | – | – | – | – |
| anti-TIM3 reference antibody 344823 (R&D Systems) | 1010 | 121 | 143 | 158 | 814 | 917 | 0 | 0 | 3 | 99 | – |
